Values of other authors, collected in article PMC11475284.
Where “and” joins values, the source holds several entries; their conditions need not be identical. Equal values may be shown once.

Biological target: Axin1 DAX (Homo sapiens) (UniProt O15169)
Experiment: SEC-MALS

Which Kd does the source give for Axin1 DAX (from UniProt O15169) here?
The Kd was 0.9 µM and 0.24 µM.
